These results are taken from US20100280227A1 (Genentech, published 2010).

The chains are these.
T1: mouse BR3 (form in the mapping assay not stated) (mouse, UniProt Q9D8D0 1-71, limits assumed)
T1 construct: May be the same as m2, m6 or m10
T1 sequence (looked up): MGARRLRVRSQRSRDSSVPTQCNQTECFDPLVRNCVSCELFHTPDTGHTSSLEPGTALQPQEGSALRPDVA

T2: murine BR3 expressed on cells (mouse, UniProt Q9D8D0 1-175)
T2 construct: whole, on cells; also called murine BR3 on BHK cells; mouse BR3
T2 sequence (looked up): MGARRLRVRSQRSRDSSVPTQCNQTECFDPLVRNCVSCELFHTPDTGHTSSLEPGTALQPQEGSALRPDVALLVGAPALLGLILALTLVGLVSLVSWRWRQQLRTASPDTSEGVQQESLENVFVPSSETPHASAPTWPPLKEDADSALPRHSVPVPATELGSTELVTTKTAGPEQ

T3: mouse BR3-Fc (mouse)
T3 construct: (BR3 ECD fused to a murine Fc); also called mBR3-Fc; murine BR3-Fc
T3 chain: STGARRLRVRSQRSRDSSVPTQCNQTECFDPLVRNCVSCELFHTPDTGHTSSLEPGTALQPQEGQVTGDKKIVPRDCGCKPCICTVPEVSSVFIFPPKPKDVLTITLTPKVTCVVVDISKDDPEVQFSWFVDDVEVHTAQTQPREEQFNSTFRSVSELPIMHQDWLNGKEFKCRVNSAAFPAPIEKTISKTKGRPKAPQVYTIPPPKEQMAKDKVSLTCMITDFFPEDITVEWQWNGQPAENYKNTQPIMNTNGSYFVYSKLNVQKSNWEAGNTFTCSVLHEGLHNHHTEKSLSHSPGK

B1: V3-1m (antibody, mouse IgG2a, V domains shown)
VH: EVQLVESGGGLVQPGGSLRLSCAASGFTISSNSIHWVRQAPGKGLEWVAWITPSDGNTDYADSVKGRFTISADTSKNTAYLQMNSLRAEDTAVYYCARRVCYNRLGVCAGGMDYWGQGTLVTVSS
VL: DIQMTQSPSSLSASVGDRVTITCRASQDVSTAVAWYQQKPGKAPKLLIYSASFLYSGVPSRFSGSGSGTDFTLTISSLQPEDFATYYCQQSRITPPTFGQGTKVEIKR
notes: also called mV3-1; V3-1 (IgG)
B2: mBAFF-Flag protein (ligand, mouse, UniProt Q9WU72 127-309, looked up, not shown: small tags and cut ends)
chain: AFQGPEETEQDVDLSAPPAPCLPGCRHSQHDDNGMNLRNIIQDCLQLIADSDTPTIRKGTYTFVPWLLSFKRGNALEEKENKIVVRQTGYFFIYSQVLYTDPIFAMGHVIQRKKVHVFGDELSLVTLFRCIQNMPKTLPNNSCYSAGIARLEEGDEIQLAIPRENAQISRNGDDTFFGALKLL
B3: mouse BR3 extracellular domain (receptor)
chain: MGARRLRVRSQRSRDSSVPTQCNQTECFDPLVRNCVSCELFHTPDTGHTSSLEPGTALQPQEGS
notes: also called mBR3-ECD; mBR-ECD

In test [1] the target is T4, human BR3 expressed on cells (human, UniProt Q96RJ3 1-184).
T4 construct: whole, on cells; also called BR3 on BJAB cells; cell surface BR3
Description: BJAB cells, direct binding.
Description: (§1) Direct and competitive binding assays were performed as follows. For the direct binding assay, IgG antibody samples were serially diluted in cold assay buffer to concentrations ranging between 300-0.02 nM. Samples (100 μl) were added to the pelleted cells, and the plates were incubated for 45 min on ice. An additional 100 μl assay buffer was then added to each well, and the plates were centrifuged at 1200 rpm for 5 min at 4° C. After carefully aspirating the supernatant, the cells were washed two additional times with 200 μl assay buffer. An anti-mouse IgG Fc-HRP or goat anti-human IgG Fc-HRP, as appropriate, was diluted 1/10,000 in cold assay buffer was added (100 μl/well, Jackson ImmunoResearch, West Grove, Pa.), and the plates were incubated on ice for 45 min. Following two washes with 200 μl cold assay buffer, tetramethyl benzidine (TMB, Kirkegaard & Perry Laboratories, Gaithersburg, Md.) was added, and color was allowed to develop for 10 min. One hundred microliters 1 M H₃PO₄ was added to stop the reaction. The plates were then read on a microplate reader at 450 nm with a 620 nm reference. In the direct binding assay, the indicated concentrations of mAbs were added to BJAB cells and bound mAb was detected.

For test [2], the target named is T4, human BR3 expressed on cells. Description: BJAB cells, competition with biotin-BAFF.
Description: (§2) The diluted samples were added to the pelleted BJAB cells in 96 well plates as described above. After 45 min incubation on ice, the cells were washed twice with 200 μl cold assay buffer, and streptavidin-HRP (AMDEX, Amersham Biosciences, Piscataway, N.J.) diluted 1/5,000 in assay buffer was added (100 μl/well). The plates were incubated for a final 45 min on ice. After washing twice with cold assay buffer, color was developed using TMB, the reaction was stopped with H₃PO₄, and the plates were read as described above.
The target is the same in test [3]. Briefly: BJAB cells, competition with biotin-BAFF. This is another data set of the same source.
Description: as §2
Test [4] deals with T5, human BR3 displayed on phage, P41 alanine-scan mutant (human, UniProt Q96RJ3 1-61, limits assumed).
T5 construct: One position of the shotgun alanine scan of BR3 on phage
Description: shotgun alanine scan of phage-displayed BR3; F against wild type.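 Note: Phage-displayed BR3 shotgun alanine libraries, two selection rounds for anti-BR3 antibody binding, normalized to a display selection, F above 1 marks a harmful substitution, below 1 a beneficial one.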
Description: (§3) At the sites of mutation, wild-type codons were replaced with the corresponding shotgun alanine codon (Weiss, supra). […] Library 1 encoded shotgun codons at positions 17, 18, 20-23, 25, 27, 28, 30, and 33, while library 2 encoded shotgun codons at positions 26, 29, 31, 34, and 36-42. Each library contained 2×10⁹ members, allowing for complete representation of the theoretical diversity (>10⁴-fold excess).
(§4) The display selection was included in order to normalize the anti-BR3 antibody-binding selection for expression differences between library members. Phage eluted from each target were propagated in E. coli XL 1-blue; amplified phage were used for selection against the same target as in the previous round. After two rounds of selection, 48 individual clones from each library and selection were grown in a 96-well format in 400 L of 2YT medium supplemented with carbenicillin and KO7 helper phage.
(§5) F-values were calculated as previously described (Weiss, supra; Gordon, supra). […] Deleterious mutations have ratios >1, while advantageous mutations have ratios <1; boldface indicates a >10-fold effect.

Test [5] addresses T6, human BR3 displayed on phage, V20 alanine-scan mutant (human, UniProt Q96RJ3 1-61, limits assumed).
T6 construct: One position of the shotgun alanine scan of BR3 on phage
Described as above.
Description: as §3, §4, §5

Test [6] addresses T7, human BR3 displayed on phage, R42 alanine-scan mutant (human, UniProt Q96RJ3 1-61, limits assumed).
T7 construct: One position of the shotgun alanine scan of BR3 on phage
The description is as above.
Description: as §3, §4, §5

The target in test [7] is T8, human BR3 displayed on phage, R39 alanine-scan mutant (human, UniProt Q96RJ3 1-61, limits assumed).
T8 construct: One position of the shotgun alanine scan of BR3 on phage
The description is as above.
Description: as §3, §4, §5

Test [8] concerns the target T9, human BR3 displayed on phage, V29 alanine-scan mutant (human, UniProt Q96RJ3 1-61, limits assumed).
T9 construct: One position of the shotgun alanine scan of BR3 on phage
The test is described as above.
Description: as §3, §4, §5

Test [9] deals with T10, human BR3 displayed on phage, P18 alanine-scan mutant (human, UniProt Q96RJ3 1-61, limits assumed).
T10 construct: One position of the shotgun alanine scan of BR3 on phage
The test is described as above.
Description: as §3, §4, §5

Test [10] has as its target T11, human BR3 displayed on phage, P21 alanine-scan mutant (human, UniProt Q96RJ3 1-61, limits assumed).
T11 construct: One position of the shotgun alanine scan of BR3 on phage
The test is described as above.
Description: as §3, §4, §5

For test [11], the target named is T12, human BR3 displayed on phage, G36 alanine-scan mutant (human, UniProt Q96RJ3 1-61, limits assumed).
T12 construct: One position of the shotgun alanine scan of BR3 on phage
The test is described as above.
Description: as §3, §4, §5

Test [12] addresses T13, human BR3 displayed on phage, L37 alanine-scan mutant (human, UniProt Q96RJ3 1-61, limits assumed).
T13 construct: One position of the shotgun alanine scan of BR3 on phage
Described as above.
Description: as §3, §4, §5

Test [13] concerns the target T14, human BR3 displayed on phage, H31 alanine-scan mutant (human, UniProt Q96RJ3 1-61, limits assumed).
T14 construct: One position of the shotgun alanine scan of BR3 on phage
Described as above.
Description: as §3, §4, §5

For test [14], the target named is human BR3 displayed on phage, mutated at A34 in the alanine scan (human, UniProt Q96RJ3 1-61, limits assumed). The description is as above.
Description: as §3, §4, §5
The target in test [15] is T15, human BR3 displayed on phage, V33 alanine-scan mutant (human, UniProt Q96RJ3 1-61, limits assumed).
T15 construct: One position of the shotgun alanine scan of BR3 on phage
The test is described as above.
Description: as §3, §4, §5

Test [16] has as its target T16, human BR3 displayed on phage, L27 alanine-scan mutant (human, UniProt Q96RJ3 1-61, limits assumed).
T16 construct: One position of the shotgun alanine scan of BR3 on phage
Described as above.
Description: as §3, §4, §5

The target of test [17] is T17, human BR3 displayed on phage, F25 alanine-scan mutant (human, UniProt Q96RJ3 1-61, limits assumed).
T17 construct: One position of the shotgun alanine scan of BR3 on phage
Described as above.
Description: as §3, §4, §5

Test [18] concerns the target T18, human BR3 displayed on phage, T17 alanine-scan mutant (human, UniProt Q96RJ3 1-61, limits assumed).
T18 construct: One position of the shotgun alanine scan of BR3 on phage; the F value gives the effect of this change against wild type; See m1 for the parent
The test is described as above.
Description: as §3, §4, §5

Test [19] addresses T19, human BR3 displayed on phage, T40 alanine-scan mutant (human, UniProt Q96RJ3 1-61, limits assumed).
T19 construct: One position of the shotgun alanine scan of BR3 on phage
Described as above.
Description: as §3, §4, §5

The target in test [20] is T20, human BR3 displayed on phage, L38 alanine-scan mutant (human, UniProt Q96RJ3 1-61, limits assumed).
T20 construct: One position of the shotgun alanine scan of BR3 on phage
The description is as above.
Description: as §3, §4, §5

Test [21] concerns the target T21, human BR3 displayed on phage, E23 alanine-scan mutant (human, UniProt Q96RJ3 1-61, limits assumed).
T21 construct: One position of the shotgun alanine scan of BR3 on phage
The description is as above.
Description: as §3, §4, §5

Test [22] addresses human BR3 displayed on phage, mutated at A22 in the alanine scan (human, UniProt Q96RJ3 1-61, limits assumed). Described as above.
Description: as §3, §4, §5
Test [23] concerns the target T22, human BR3 displayed on phage, D26 alanine-scan mutant (human, UniProt Q96RJ3 1-61, limits assumed).
T22 construct: One position of the shotgun alanine scan of BR3 on phage
The test is described as above.
Description: as §3, §4, §5

For test [24], the target named is T23, human BR3 displayed on phage, L28 alanine-scan mutant (human, UniProt Q96RJ3 1-61, limits assumed).
T23 construct: One position of the shotgun alanine scan of BR3 on phage
The description is as above.
Description: as §3, §4, §5

In test [25] the target is B3. Description: SPR, IgG on chip, BR3 ECD in solution. (SPR reads the build-up and loss of mass on a sensor chip optically.)
The target of test [26] is T24, human BR3 extracellular domain (human, UniProt Q96RJ3 1-61).
T24 construct: biotinylated where used as tracer; also called hBR3-ECD; BR3-ECD
Description: SPR, IgG on chip, BR3 ECD in solution.

Test [27] concerns the target T4, human BR3 expressed on cells. Briefly: BJAB cells, direct binding. This is another data set of the same source.
Description: as §1
In test [28] the target is T1, mouse BR3 (form in the mapping assay …). Description: competition ELISA on murine BR3 against biotinylated V3-1m.
The target of test [29] is T2, murine BR3 expressed on cells. Description: BHK cells expressing murine BR3, competitive binding assay against BAFF.
In test [30] the target is T1, mouse BR3 (form in the mapping assay …). Description: competition ELISA on murine BR3 against biotinylated B9C11.
Another test has as its target T3, mouse BR3-Fc. Briefly: ELISA: mBAFF-Flag titrated on coated mBR3-Fc, then F(ab)'2 phage #3 (V3) added and detected. (In general: An ELISA detects its analyte on a solid surface through an enzyme-linked reagent.)
A further test addresses T25, V3-46 N31Q phage clone.
T25 construct: also called V3-46q
Briefly: phage competition ELISA, ECD in solution (printed Phage ID50).

The target of another test is T26, V3-46 phage clone.
T26 construct: also called V3-46 WT; clone 46
The test is described as above.

The next test addresses T27, V3-46 N31A phage clone.
T27 construct: also called V3-46a
Described as above.

The target of test [31] is T28, V3-46s Fab.
T28 construct: N31S mutant of V3-46; also called V46s; N31S
The description is as above.
Description: (§6) Third, a competition ELISA was performed. […] The wells were blocked by adding 65 ul 1% BSA for 30 minutes followed by 40 ul 1% Tween20 for another 30 minutes. The wells were washed with PBS—0.05% Tween20 5 times. […] The wells of the second plate were washed with PBS—0.5% Tween20 at least three times. 75 ul of HRP-conjugated anti-M13 antibody (1/5000 dilution with ELISA buffer) per well was added and incubated at room temperature for 30 minutes. The wells were washed again with PBS—0.05% Tween20 at least five times.

Test [32] has as its target T29, V3-1 Fab.
T29 construct: soluble Fab in SPR
Description: phage competition ELISA, ECD in solution.
Description: Second, the concentration of purified phage that would be optimal for use in the following competition ELISA assay was determined (i.e., approximately 90% of maximal binding capacity on the coated plate). […] The wells were blocked by adding 65 ul 1% BSA for 30 minutes followed by 40 ul 1% Tween20 for another 30 minutes. Next, the wells were washed five times with PBS—0.05% Tween20. F(ab)′2 phage were diluted to 0.1 O.D./ml in ELISA buffer (PBS—0.5% BSA and 0.05% Tween20) and, then, were added to the wells for 15 minutes at room temperature. The wells were then washed with PBS—0.05% Tween20 at least three times. 75 ul of HRP-conjugated anti-M13 antibody (Amersham, 1/5000 dilution with ELISA buffer) per well was added and incubated at room temperature for 30 minutes. The wells were washed again with PBS—0.05% Tween20 at least five times. Next, 100 ul/well of a 1:1 ratio of 3,3′,5,5′-tetramethylbenzidine (TMB) Peroxidase substrate and Peroxidase Solution B (H2O2) ((Kirkegaard-Perry Laboratories (Gaithersburg, Md.)) was added to the well and incubated for 5 minutes at room temperature. The optical density of the color in each well was determined using a standard ELISA plate reader at 450 nm. The dilutions of phage were plotted against the O.D. readings.
Third, a competition ELISA was performed. […]

In test [33] the target is T28, V3-46s Fab. Description: phage competition ELISA, ECD in solution.
Target sequence in this assay (VH, as listed by the source, chain 1 of 2): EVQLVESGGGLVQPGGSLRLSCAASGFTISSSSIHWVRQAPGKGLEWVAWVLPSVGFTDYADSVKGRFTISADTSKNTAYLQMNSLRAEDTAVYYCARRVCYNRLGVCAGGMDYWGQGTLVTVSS
Target sequence in this assay (VL, as listed by the source, chain 2 of 2): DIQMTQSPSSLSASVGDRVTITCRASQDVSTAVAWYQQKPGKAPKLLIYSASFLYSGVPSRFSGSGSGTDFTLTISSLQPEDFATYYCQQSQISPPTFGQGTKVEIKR
The next test addresses T30, V3-46s-42 Fab.
T30 construct: soluble Fab in SPR; also called V46s-42
Description: phage competition ELISA, ECD in solution (printed Phage50).

For test [34], the target named is T28, V3-46s Fab. Described as above.
A further test deals with T31, V3-46s-9 Fab.
T31 construct: soluble Fab in SPR; also called V46s-9
The description is as above.

The next test concerns the target T32, V3-13 Fab.
T32 construct: soluble Fab in SPR
Description: phage competition ELISA, ECD in solution.

Test [35] deals with T29, V3-1 Fab. Description: phage competition ELISA, ECD in solution. This is another data set of the same source.
Description: as §6
The next test concerns the target T33, V3-12 Fab.
T33 construct: soluble Fab in SPR
Briefly: phage competition ELISA, ECD in solution.

A further test addresses T34, V3-11 Fab.
T34 construct: soluble Fab in SPR
Briefly: phage competition ELISA, ECD in solution.

Like-named read-outs stand apart in the source and are kept apart here.

T34 sequence (VH, as listed by the source, chain 1 of 2): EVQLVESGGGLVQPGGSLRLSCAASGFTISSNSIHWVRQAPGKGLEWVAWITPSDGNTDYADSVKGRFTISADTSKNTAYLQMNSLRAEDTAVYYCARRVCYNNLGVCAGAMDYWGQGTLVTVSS
T34 sequence (VL, as listed by the source, chain 2 of 2): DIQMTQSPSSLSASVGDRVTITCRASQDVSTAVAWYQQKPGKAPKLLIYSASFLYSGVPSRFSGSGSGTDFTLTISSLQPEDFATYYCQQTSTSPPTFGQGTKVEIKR
T31 sequence (VL, as listed by the source, chain 2 of 2): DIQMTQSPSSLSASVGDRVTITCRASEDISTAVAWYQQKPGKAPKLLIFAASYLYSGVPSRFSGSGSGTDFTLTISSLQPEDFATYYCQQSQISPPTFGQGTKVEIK
T30 sequence (VL, as listed by the source, chain 2 of 2): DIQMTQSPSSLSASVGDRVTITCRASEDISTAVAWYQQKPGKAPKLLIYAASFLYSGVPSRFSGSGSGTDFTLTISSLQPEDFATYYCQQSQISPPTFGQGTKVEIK
T25 sequence (VH, as listed by the source, chain 1 of 2): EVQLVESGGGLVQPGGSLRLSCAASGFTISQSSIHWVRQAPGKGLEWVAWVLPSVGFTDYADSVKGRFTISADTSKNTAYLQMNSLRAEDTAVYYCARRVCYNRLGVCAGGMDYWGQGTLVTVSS
T33 sequence (VH, as listed by the source, chain 1 of 2): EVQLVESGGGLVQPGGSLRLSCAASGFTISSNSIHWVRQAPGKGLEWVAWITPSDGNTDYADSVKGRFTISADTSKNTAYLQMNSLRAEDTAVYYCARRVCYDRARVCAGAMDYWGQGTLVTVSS
T33 sequence (VL, as listed by the source, chain 2 of 2): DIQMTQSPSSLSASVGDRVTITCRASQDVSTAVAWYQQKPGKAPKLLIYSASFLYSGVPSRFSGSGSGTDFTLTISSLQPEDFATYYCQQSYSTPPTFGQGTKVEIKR
Description for V3-11 Fab: as §6
Description for V3-12 Fab: as §6
Description for V3-13 Fab: as §6
Description for V3-46 N31A phage clone: as §6
Description for V3-46 N31Q phage clone: as §6
Description for V3-46 phage clone: as §6
Description for mouse BR3-Fc: The wells were blocked by adding 65 ul 1% BSA for 30 minutes followed by 40 ul 1% Tween20 for another 30 minutes. Next, the wells were washed five times with PBS—0.05% Tween20. […] The wells were washed five times with PBS—0.05% Tween20.
Binding was quantified by adding 75 ul/well of horse radish peroxidase (HRP)-conjugated anti-M13 antibody in PBS plus 0.5% BSA and 0.05% Tween20 at room temperature for 30 minutes (Sidhu et al., supra). The wells were washed with PBS—0.05% Tween20 at least five times.

Consider B1, for which the EC50 amounted to 3.37 nM in test [1] and 4.3 nM in test [27]. Moreover, the IC50 came to 2.47 nM in [2], 8.9 nM in [3] and 36.2 nM in test [29]. Besides, the F value in [4] came to 1.6; in test [5], 0.9; in test [6], 0.9; in test [7], 0.4; in [8], 92; in test [9], 0.8. The F value in [10] worked out at 0.6; in test [11] it was 0.7; in test [12] it was 0.7; in [13] it was 0.1; in test [14], 13; in test [15] it was 14. Also, the F value in [16] came out at 1.4; in test [17], 21; in test [18], 0.5; in test [19] it was 0.6; in test [20], 1.4; in test [21], 2.4. Further, the figures for the F value in test [22], in [23] and in test [24] were 0.7, 8.7 and 98, respectively. Moreover, the results for the Kd in test [25] and in [26] were 1.56 nM and 0.64 nM, respectively. Moreover, the values for the koff in test [25] and in test [26] were 0.000131 s⁻¹ and 0.000171 s⁻¹, respectively. Also, the kon worked out at 84000 M⁻¹ s⁻¹ in test [25] and 267000 M⁻¹ s⁻¹ in test [26]. The “IC50 (read off the curve)” value in test [28] is about 0.6 µg/mL; in test [30], about 0.8 µg/mL.

As to B2, the “IC50 (read off the curve)” value with mouse BR3-Fc is about 2 nM.

For B3, the IC50 was determined as 2.44 nM in the test with V3-46 N31Q phage clone; 1.42 nM in the test with V3-46 phage clone; 2.89 nM with V3-46 N31A phage clone; 1.53 nM with V3-46s Fab [31]; 5.4 nM with V3-1 Fab [32]; 1.53 nM with V3-46s Fab [33]. The IC50 is 0.23 nM in the test with V3-46s-42 Fab; 1.7 nM in the test with V3-46s Fab [34]; 0.18 nM with V3-46s-9 Fab; 33 nM with V3-13 Fab; 5.4 nM with V3-1 Fab [35]; 57 nM in the test with V3-12 Fab. Besides, in the test with V3-11 Fab, the IC50 was determined as 8.4 nM.

For orientation: EC50 means the midpoint of the concentration-response curve. Read a high EC50 as a need for much substance. In general, IC50 refers to the concentration at which inhibition is half-maximal. Higher therefore signals weaker potency. By Kd is commonly meant the constant that tells how readily two partners part at equilibrium. For orientation: koff means a measure of how fast the partners let go of each other. Low readings indicate slow dissociation, high ones fast dissociation. As usually defined, the kon is a measure of how fast the partners come together. Read a high kon as fast association.
